Measured values as given in the supplement of paper PMC10567573.

B1: FCHO1 (parent)
chain: FSDPSQSDPETKDFWLNMAALTEA

Variants of: B1
Assay: protein stability index of a GFP-peptide fusion (GPS, HEK-293T) (PSI 1-6); higher = more stable
Conditions: c terminus: a fixed tail appended
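Also: lentivirally expressed fusions sorted by FACS into six bins by GFP to DsRed ratio, PSI derived from sequencing read proportions per bin multiplied by bin number.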

Protein stability index: each site, then its substitutions
P9: W 2.4 | I 2.82 | L 2.77 | Q 3.27 | G 2.77 | Y 2.65 | H 2.73 | A 3.12
F1: L 4.25 | P 4.8 | T 4.87 | C 4.02 | S 4.74 | H 4.7 | D 5.36 | W 4.1
N17: W 2.49 | P 1.94 | C 2.41
E10: M 1.94 | V 2.63 | C 2.06 | P 2.66 | F 1.94 | T 2.12 | D 3
P4: E 3.37 | K 2.04 | C 1.99 | V 2.65 | S 2.26 | F 2.16
D13: F 1.88 | S 1.47 | T 2.37 | N 1.27 | Q 2.08 | V 1.65 | A 2.09 | M 1.43
D8: A 2.62 | V 3.11 | G 2.75 | F 2.37 | E 3.1
S7: E 3.69 | A 3.37 | M 3.55 | T 2.74 | H 3.39 | R 2.64 | L 2.65 | F 2.63 | K 2.8 | P 3.92 | D 3.73
S2: R 3.79 | E 4.62 | Q 2.4 | P 3.02 | C 1.69 | V 1.93 | A 1.7
S5: R 2.21 | W 1.74 | I 2.74 | H 2.87 | K 2.94 | A 3.03
A24: C 2.36 | D 2.8 | L 2.67 | M 2.62 | F 2.56 | I 1.92 | R 3.38 | W 2.8 | G 2.5 | V 1.82 | K 3.38
E23: Y 2.1 | S 2.23 | Q 2.86 | V 2.24 | D 2.75
D3: T 1.74 | P 2.4 | F 2.1 | M 1.96 | A 1.45 | R 2.06
F14: K 4.72 | W 3.87 | R 4.62 | I 3.61 | H 4.51 | V 4.01 | G 4.83 | M 4.12 | Q 4.75
Q6: E 3.35 | I 2.4 | D 3.3 | F 2.65 | A 2.91 | C 2.64
T11: Y 2.06 | P 3.38 | F 2.09 | N 3.12 | G 3.04 | C 2.92
K12: Y 2.97 | S 3.26 | F 2.6 | N 3.66 | R 2.65
A20: P 2.96 | E 3.61 | G 2.65 | T 2.71 | M 2.85 | I 2.38 | D 3.25
A19: P 2.7 | V 2.25 | I 2.47 | D 2.53
T22: D 3.04 | E 3.66 | N 2.93 | R 2.46 | H 3 | C 3.09 | K 2.61 | V 3.44 | S 2.34 | Y 2.82
W15: I 4.43 | L 4.59 | C 4.62 | Y 4.38 | F 4.3
M18: E 3.98 | K 2.91 | F 2.78 | Y 3.59 | P 3.53 | N 3.55 | V 2.56 | Q 3.77
L21: I 3 | W 1.73 | H 2.55 | C 2.4 | E 3.9 | A 2.63 | Q 3.3 | F 2.1 | V 2.58
L16: T 2.56 | I 2.32 | M 2.55 | P 4.08 | W 2.31 | Y 2.73 | H 2.3
